In test [1] the target is antigen of ESBA105 (not named in the examples) (UniProt P01375). Briefly: assay not described.
In test [2] the target is T1, antigen of ESBA105 (not named in the examples) (UniProt P01375 77-233, limits assumed). Briefly: assay not described.
Test [3] addresses T1, antigen of ESBA105 (not named in the …). Briefly: assay not described; reference itself.

The source of these data is patent US20090074780A1 (ESBATECH AN ALCON BIOMEDICAL RESEARCH UNIT, published 2009).

T1 sequence (P01375 77-233 limits assumed): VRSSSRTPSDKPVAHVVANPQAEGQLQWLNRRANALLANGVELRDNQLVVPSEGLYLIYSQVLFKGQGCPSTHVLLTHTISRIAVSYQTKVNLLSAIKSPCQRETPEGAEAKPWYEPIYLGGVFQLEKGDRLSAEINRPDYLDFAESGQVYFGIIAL
Sequence of antigen of ESBA105 (not named in the examples) (UniProt P01375) (P01375 77-233 limits assumed): as above

ESBA105 VH V103T (scFv): in test [1], the Activity relative to ESBA105 (relative to ESBA105) is 1.2.

With ESBA105_VL V3Q (scFv), the Binding Activity (relative to parental ESBA105) (relative to parental ESBA105) in test [1] was found to be 1.2.

B1: ESBA105_QC15.2 (scFv, V domains shown)
VH: QVQLVQSGAEVKKPGASVKVSCTASGYTFTHYGMNWVRQAPGRGLEWMGWINTYTGEPTYADKFKDRITFSLETSASTVYMELTSLTSDDTAVYYCARERGDAMDYWGQGTLVTVSS
VL: DIVMTQSPSSLSASVGDRVTLTCTASQSVSNDVVWYQQRPGKAPKLLIYSAFNRYTGVPSRFSGRGYGTDFTLTISSLQPEDVAVYYCQQDYNSPRTFGQGTKLEVK
On to B1, for which the “Binding Activity (relative to parental ESBA105)” value in test [2] is 1 relative to parental ESBA105.

B2: ESBA105 (scFv)
chain: MADIVMTQSPSSLSASVGDRVTLTCTASQSVSNDVVWYQQRPGKAPKLLIYSAFNRYTGVPSRFSGRGYGTDFTLTISSLQPEDVAVYYCQQDYNSPRTFGQGTKLEVKRGGGGSGGGGSGGGGSSGGGSQVQLVQSGAEVKKPGASVKVSCTASGYTFTHYGMNWVRQAPGKGLEWMGWINTYTGEPTYADKFKDRFTFSLETSASTVYMELTSLTSDDTAVYYCARERGDAMDYWGQGTLVTVSS
B2: the “Activity relative to ESBA105” value in test [3] is 1 relative to ESBA105.
